From PMC5499861 (Nucleic Acids Research, 2017)
Square brackets hold non-standard residues; d marks the D form. Ends that are not written are not given here. Arg(Me2a) = CN(C)C(=N)NCCC[C@H](N)C(=O)O; Lys(Me3) = C[N+](C)(C)CCCC[C@H](N)C(=O)O

How the values were obtained:
[1] = molecular target: RcATXR5 (ATXR5 SET domain) (Ricinus communis, UniProt B9RU15); assay type: binding
[2] = molecular target: nucleosome core particle (Xenopus laevis recombinant histone octamer on 147 bp 601 DNA) (Xenopus laevis); experiment: native gel or EMSA
[3] = molecular target: T1, SET domain of Ricinus communis ATXR5 (a.a. 158-374) (Ricinus communis, UniProt B9RU15 158-374); experiment: crystal structure
T1 sequence: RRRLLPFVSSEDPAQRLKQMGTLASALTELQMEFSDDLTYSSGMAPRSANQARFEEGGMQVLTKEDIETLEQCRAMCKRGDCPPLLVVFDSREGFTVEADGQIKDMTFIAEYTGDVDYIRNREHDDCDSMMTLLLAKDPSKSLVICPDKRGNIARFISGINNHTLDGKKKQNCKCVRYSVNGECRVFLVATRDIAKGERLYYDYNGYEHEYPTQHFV

Nc1ncnc2c1ncn2[C@@H]1O[C@H](C[C@@H](N)CC[C@H](N)C(=O)O)[C@@H](O)[C@H]1O [SFG, sinefungin]
GST pull-down, compound-dependent association with GST-PHD [1]: PHD domain of ATXR5 senses the binding of sinefungin to the SET domain

full-length Glycine max ATXR5 (a.a. 1-334) (enzyme)
Kd [2]: 380 nM

KQLATKAA[Rme1]KSAPATGGVKY [histone H3.1 peptide (a.a. 18-36) R26me1]
binding result [3]: binds

KQLATKAARKSAPATGGV[Lys(Me3)]Y [histone H3.1 peptide (a.a. 18-36) K36me3]
binding result [3]: binds

KQLATKAA[Arg(Me2a)]KSAPATGGVKY (not fully specified) [histone H3.1 peptide (a.a. 18-36) R26me2a]
binding result [3]: binds
